Experimental data reported in the supplement of paper PMC10126150.
± gives the standard deviation of the averaged measurements.

System: ATP
Experiment: switch fluorescence ratio, 500 uM ATP over buffer (Cy3 cluster intensity, sum of 5 cycles each) (fold (ratio)); higher = stronger signal-on switching upon ATP binding; sequences stand for … in TCGTCGGCAGCGTCAGATGTGTATAAGAGACAGTTTTTTTTTTTTTTTTTTTTTTTTT…TC
Conditions: aptamer strand: ATP DNA aptamer (quencher-CACCTGGGGGAGTATTGCGGAGGAAGG + anchor), 100 nM annealed; ATP concentration: 500 uM
Summary of the method: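 Imaging in selection buffer was followed by imaging after 15 min with 500 uM ATP at 22 °C, for Cy3-labelled switching-strand clusters annealed to 100 nM quencher-labelled ATP aptamer on a modified Illumina MiSeq flow-cell. Five of these buffer/ATP cycles ran, separated by NaOH stripping and re-annealing. The fluorescence ratio per cluster is summed target-cycle over summed buffer-cycle Cy3 intensity, averaged per switch-domain sequence; clusters outside 100-1000 RFU were removed.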
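Further: ATP exposure 15 min at 22 °C before imaging.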

| Sequence | switch fluorescence ratio |
| --- | --- |
| TGACCAATGT | 1 ± 0.028 |
| TGACCGAAAC | 1.2 ± 0.051 |
| TGACCGCGGA | 1.11 ± 0.039 |
| TGACCTGCAC | 1.51 ± 0.034 |
| TGACGAAACT | 1.35 ± 0.33 |
| TGACGAAGGA | 1.23 ± 0.3 |
| TGACGACCGC | 3.33 ± 0.48 |
| TGACGAGGGG | 0.967 ± 0.031 |
| TGACGCAGGT | 1.38 ± 0.04 |
| TGACGCGCGT | 1.014 ± 0.0018 |
| TGACGGAGGC | 1.06 ± 0.051 |
| TGACGGCCAG | 1.01 ± 0.013 |
| TGACGGGTTT | 1.06 ± 0.12 |
| TGACGTTATC | 1.18 ± 0.025 |
| TGACGTTCAG | 0.996 ± 0.02 |
| TGACTGCTGG | 1.01 ± 0.027 |
| TGACTGGGAA | 1.06 ± 0.091 |
| TGAGAAGGGG | 0.991 ± 0.041 |
| TGAGACAATA | 1.1 ± 0.011 |
| TGAGAGAAGT | 0.968 ± 0.071 |
| TGAGAGAGAA | 1.01 ± 0.019 |
| TGAGAGATTT | 0.984 ± 0.011 |
| TGAGAGGCGA | 1.01 ± 0.011 |
| TGAGAGTAAC | 0.946 ± 0.07 |
| TGAGAGTTTA | 1.024 ± 0.0062 |
| TGAGATTAAA | 1.01 ± 0.0098 |

| Sequence | switch fluorescence ratio |
| --- | --- |
| TGAGATTTGT | 1.06 ± 0.12 |
| TGAGCAGAGG | 1.04 ± 0.015 |
| TGAGCAGTTG | 1.06 ± 0.12 |
| TGAGCATAGT | 1.026 ± 0.0023 |
| TGAGCCCACG | 1.027 ± 0.0039 |
| TGAGCTTTTT | 0.993 ± 0.03 |
| TGAGGAAAGA | 0.988 ± 0.035 |
| TGAGGAAGGG | 1.04 ± 0.099 |
| TGAGGAATGT | 1.0157 ± 0.00058 |
| TGAGGACCCT | 1.02 ± 0.025 |
| TGAGGCAAGG | 1.69 ± 0.47 |
| TGAGGCGGGT | 1.05 ± 0.016 |
| TGAGGGAATT | 1.01 ± 0.018 |
| TGAGGGATGT | 1.04 ± 0.059 |
| TGAGGGGAGT | 0.9908 ± 0.0067 |
| TGAGGGGATA | 1.01 ± 0.025 |
| TGAGGGGGAC | 1.02 ± 0.087 |
| TGAGGGGGTT | 0.997 ± 0.049 |
| TGAGGGGTAG | 0.988 ± 0.05 |
| TGAGGGTAAG | 1.13 ± 0.21 |
| TGAGGGTTCT | 0.979 ± 0.02 |
| TGAGGTATG | 0.971 ± 0.046 |
| TGAGGTATTA | 1.0075 ± 0.00077 |
| TGAGGTGGTG | 1.01 ± 0.0074 |
| TGAGGTGTTG | 1.01 ± 0.063 |
| TGAGGTTGGC | 1.01 ± 0.023 |

| Sequence | switch fluorescence ratio |
| --- | --- |
| TGAGTAACAG | 0.981 ± 0.012 |
| TGAGTAATTT | 1.01 ± 0.037 |
| TGAGTACGTC | 1.06 ± 0.14 |
| TGAGTCAGTG | 1.0116 ± 0.00046 |
| TGAGTCCATT | 0.985 ± 0.018 |
| TGAGTCGCGT | 1.01 ± 0.013 |
| TGAGTGTGGG | 0.99 ± 0.03 |
| TGAGTGTGTA | 1.03 ± 0.042 |
| TGAGTTAAAG | 0.9876 ± 0.0082 |
| TGAGTTAAGT | 0.997 ± 0.01 |
| TGAGTTATCG | 0.968 ± 0.033 |
| TGAGTTCTTG | 0.982 ± 0.046 |
| TGAGTTGGAC | 1.08 ± 0.067 |
| TGAGTTGGAG | 0.9878 ± 0.002 |
| TGAGTTGGCT | 1.02 ± 0.014 |
| TGAGTTGGGA | 1.002 ± 0.0057 |
| TGAGTTGGTT | 0.973 ± 0.026 |
| TGAGTTGTTT | 0.985 ± 0.013 |
| TGAGTTTGCG | 1.01 ± 0.075 |
| TGAGTTTTAG | 0.972 ± 0.031 |
| TGAGTTTTTT | 0.982 ± 0.039 |
| TGATAAATGT | 1.13 ± 0.19 |
| TGATAACTCC | 1.03 ± 0.036 |
| TGATAAGGAG | 1.01 ± 0.012 |
| TGATACTGAT | 1.02 ± 0.058 |
